According to the RNAGym collection of RNA variant scans (doi:10.1073/pnas.2313332121):
Fewer inactive variants are shown than the library holds.

B1: TPR 5TU (parent)
chain: GGAUCUUCUCGAUCUAACAAAAAAGACAAAUCUGCCACAAAGCUUGAGAGCAUCUUCGGAUGCAGAGGCGGCAGCCUUCGGUGGCGCGAUAGCGCCAACGUUCUCAACUAUGACACGCAAAACGCGUGCUCCGUUGAAUGGAGUUUAUCAUG

Variants of: B1
Assay: polymerase ribozyme fitness, log enrichment relative to wild type (log ratio); higher = more active; in vitro selection for triplet polymerase activity
How it was run: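 To select mutant libraries of each subunit of a heterodimeric triplet polymerase ribozyme, built by PCR and transcribed, each was annealed with a biotinylated primer, partner subunit and triplets, then incubated frozen at −7 °C. Extended constructs were gel-excised, captured on streptavidin beads and amplified by RT-PCR, in one round carried out in triplicate. Illumina sequencing of input and output libraries kept genotypes with ≥10 input reads and ≥1 read per output. Fitness is the base-2 logarithm of genotype enrichment relative to wild-type enrichment, from inverse-variance-weighted replicate averages.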

Variant | polymerase ribozyme fitness (log ratio)
G83A C125A | -0.344
G81C G84A A115C G133U C149U | ≤ -4.2
C76U C93U C105U | -0.938
G81C G117C A138G | -4.02
C85A A120C A121U U130C U151G | ≤ -4.2
C85A A121U U127C | -1.47
G84U C118U | -1.91
C76U C95U U135C C149A | ≤ -4.2
G84U U127G | -3.43
G84A C95A U104C | -0.367
U77C C79U C132A | ≤ -4.2
G83U C129A | -4.02
G81A G133U | -3.84
G81A G133C | -3.84
G80U G81A A142G | -1.49
C79U A98G | -3.44
G81C A120G | -0.127
C85A C95A | -0.893
G81C C85U A89U A142G | -1.67
C85A G152A | -3.87
C85A G152C | -2.88
C85A C129U | -0.397
U82G G143A | -0.245
C79U U134A | -4.05

Variant | polymerase ribozyme fitness (log ratio)
G81A G86A C99G | -1.98
G80A A142U U144C | -3.55
U82C A115G A138U | -4.19
G81A G86C A89U C125U C131U A137G | -4.06
C85A G117C C118A A147U | -0.0649
G83U A89G C95U C103G | ≤ -4.2
C85G C96U A113U | -3.8
G83A U135G G141A | -3.78
G81U U82A G92A G152U | ≤ -4.2
G84U A89U G126U | -1.58
G84A G88A U148G | ≤ -4.2
U78A C93U | ≤ -4.2
G84U U145A | -1.53
C76U C93G G124A C132A | ≤ -4.2
G83C G88C | ≤ -4.2
G81C U135C | -2.22
G83U C114G A115U A119U | ≤ -4.2
G81A A91G | -2.82
G80C U90G | ≤ -4.2
U82C A115G | -0.965
G84A G136U | -2.81
U78A G133A U139G | ≤ -4.2
U78G U111G A113U | ≤ -4.2
G83A C108U | -3.01

Variant | polymerase ribozyme fitness (log ratio)
C79A G84A A120U U127C U144C | ≤ -4.2
G80U C114U U144C | -3.95
G84U C95U G143C | -3.33
U77A G92U C99G | -4.06
U82A G126A G133C | -1.01
U77A G86A C116G A121C | ≤ -4.2
C79U G86A C96U C149G | ≤ -4.2
U82C U104G G117U | 0.147
C76U C118A | -2.21
G84A A121C U127G | -2.56
G83C C99A G133A | -4.12
G81A C105G A121U | -1.1
G80C G88C G92A G136U | ≤ -4.2
G83C C132G | ≤ -4.2
G84C U134G | ≤ -4.2
C76U C93U | -2.28
G84U G133A | ≤ -4.2
G84C G126C | -1.54
G80A A98C | -2.19
G81U C85G A89C C93G | ≤ -4.2
U77C C95U G141A | ≤ -4.2
G80A G84A | -0.264
G83A G141C | -1.87
U82G G86U U102G U130G A147U | ≤ -4.2

Variant | polymerase ribozyme fitness (log ratio)
C76U G83U G84U C123U | -2.49
G83A U135C | -2.09
G84A G140U | -2.64
G84A G140A | -3.27
C79G U82A C87U C103A | ≤ -4.2
G84U C99U G141C | -2.46
G83C U104G C116U | -1.3
U78C A120U G133U G141A | -3.21
U77G G92U | -3.92
G83C A107C | ≤ -4.2
G81U G84U | -2.19
C85A U139G | -1.11
U82A C93U A119U U127G G143C | -4.06
U78A G81A C93G A97U U151C | ≤ -4.2
G84U C96U A122G C149G | ≤ -4.2
G84A A97U U146C | -0.418
C85G C114G G141U | -4.17
U78G C99G C103A U109G | ≤ -4.2
C85G C114G | -3.8
C85G A122U | -1.53
G83U C95U C118U U144A | -3.4
G84U G124C G140U U146C | ≤ -4.2
G84A G133C | -1.78
C85A U102G A121G A122C | ≤ -4.2

Variant | polymerase ribozyme fitness (log ratio)
G84U A120U | -2.07
C76U U139G | -0.649
G83C C132U A142U | ≤ -4.2
G81C G84U | -2.44
C85A U130A | -2.45
U82A C118U | -0.0134
G84U C96A | -2.84
G81A G86A A97C | -0.925
G80A A91C A120G | ≤ -4.2
G80C C93G | -4.2
C85A C118G | -0.907
C85A C118U | -0.342
G83U C95G | -1.54
G83U C95U | -1.53
G83A C132G G133C | -2.67
C85A C103A A147G | ≤ -4.2
C76U C96A | 0.322
C85A C87A C108U A121U U135C G141A U145A | ≤ -4.2
U77A U134G | ≤ -4.2
C85A A137C | -4.13
G80U C114U | -2.31
G83C G94A A98U C125U | -1.82
G84U U101G G143U | ≤ -4.2
G81C C87A C99G | ≤ -4.2

Variant | polymerase ribozyme fitness (log ratio)
C76U U78A A107U G126A | ≤ -4.2
G81A G92A U101A | -3.21
G80A G84A C116A U135G | ≤ -4.2
G81U G92C C116A G133C | -3.35
G84A U102G A122U | -2.74
C79A C87G | ≤ -4.2
G80A C99G | -1.02
U78A A91U A138C | ≤ -4.2
U82C G112U G152A | -3.59
U82G A91U A110U G117A | ≤ -4.2
C85A C87U U101G G136U | ≤ -4.2
C85A G143U | -2.37
C85A G143C | -3.01
G83C U101C A119G A122U U135C U145A | -3.51
G83U U101A A115U G117U | ≤ -4.2
U77G A89C U104C | ≤ -4.2
G84U C103U | -1.74
C85A G141C | -1.46
C85A G141A | -1.85
G80U A91C A106U C132G | ≤ -4.2
C85A A119U | -2.98
U82C A89U | -0.15
C79U A91U C103G U135A | ≤ -4.2
G81A A120U G128A | -3.29

Variant | polymerase ribozyme fitness (log ratio)
U82G G84C | -4.06
G84A A119U | -0.787
C76U C87U U102C | -1.82
G84U U104G A115C | -3.36
G83A A147C | 0.0173
G84A G128U | -3.84
G83A U104G A120G | -1.21
G84U | -1.91
G84C | -1.76
G84A | -0.547
U77A G94A G140A | ≤ -4.2
G81A A107U | -3.89
C85A C103A C149U | -3.27
G84U G117U A121G | -1.75
G84A G86U C95A C99U U101A C123G | ≤ -4.2
G83U A89C | -0.953
G83A A106G A119C | -0.0979
G80U U82C | -1.68
G83U A121U | -0.341
C85G A119G | -1.7
C85G A119C | -2.45
G81C U102C A147G | -3.21
G83U C123A | -0.709
